# PMC10397247
# T1: Core_IIII-es_KKEK
# T1 chain: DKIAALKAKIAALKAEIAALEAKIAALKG
# T2: 4H1081-bH
# T2 chain: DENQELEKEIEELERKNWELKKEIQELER
# T3: 4H112-bH
# T3 chain: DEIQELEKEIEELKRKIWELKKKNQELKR
# T4: 4H1158-bH
# T4 chain: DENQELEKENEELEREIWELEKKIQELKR
# T5: 4H118-bH
# T5 chain: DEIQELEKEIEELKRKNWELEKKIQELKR
# T6: 4H1348-bH
# T6 chain: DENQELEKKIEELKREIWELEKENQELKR
# T7: 4H1373-bH
# T7 chain: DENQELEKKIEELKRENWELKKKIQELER
# T8: 4H1544-bH
# T8 chain: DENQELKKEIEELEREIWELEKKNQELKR
# T9: 4H170-bH
# T9 chain: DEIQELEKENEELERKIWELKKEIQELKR
# T10: 4H1710-bH
# T10 chain: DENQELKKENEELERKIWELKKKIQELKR
# T11: 4H1831-bH
# T11 chain: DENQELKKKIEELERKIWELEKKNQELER
# T12: 4H1899-bH
# T12 chain: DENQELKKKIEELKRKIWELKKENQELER
# T13: 4H1985-bH
# T13 chain: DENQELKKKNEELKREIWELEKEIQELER
# T14: 4H2586-bH
# T14 chain: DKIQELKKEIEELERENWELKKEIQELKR
# T15: 4H2627-bA
# T15 chain: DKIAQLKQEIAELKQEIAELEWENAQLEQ
# T16: 4H2627-bH
# T16 chain: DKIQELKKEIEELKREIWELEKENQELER
# T17: 4H2673-bH
# T17 chain: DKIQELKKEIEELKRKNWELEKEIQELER
# T18: 4H2702-bH
# T18 chain: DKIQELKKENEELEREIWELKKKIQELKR
# T19: 4H2717-bA
# T19 chain: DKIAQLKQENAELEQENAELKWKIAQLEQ
# T20: 4H3010-bH
# T20 chain: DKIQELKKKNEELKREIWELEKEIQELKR
# T21: 4H3112-bH
# T21 chain: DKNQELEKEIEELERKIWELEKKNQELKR
# T22: 4H3162-bH
# T22 chain: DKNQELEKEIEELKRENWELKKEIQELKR
# T23: 4H3175-bH
# T23 chain: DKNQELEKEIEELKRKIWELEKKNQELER
# T24: 4H3277-bH
# T24 chain: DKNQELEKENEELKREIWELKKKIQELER
# T25: 4H3298-bH
# T25 chain: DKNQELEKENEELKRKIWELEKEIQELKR
# T26: 4H3427-bH
# T26 chain: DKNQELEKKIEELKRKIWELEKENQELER
# T27: 4H346-bH
# T27 chain: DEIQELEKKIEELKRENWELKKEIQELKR
# T28: 4H3462-bH
# T28 chain: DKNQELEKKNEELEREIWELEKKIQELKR
# T29: 4H3497-bH
# T29 chain: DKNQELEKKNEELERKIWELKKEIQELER
# T30: 4H3613-bH
# T30 chain: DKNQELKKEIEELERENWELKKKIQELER
# T31: 4H3628-bH
# T31 chain: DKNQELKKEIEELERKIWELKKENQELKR
# T32: 4H3926-bH
# T32 chain: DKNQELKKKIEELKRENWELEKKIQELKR
# T33: 4H4073-bH
# T33 chain: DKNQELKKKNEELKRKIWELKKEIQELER
# T34: 4H457-bH
# T34 chain: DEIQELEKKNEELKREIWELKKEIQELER
# T35: 4H575-bH
# T35 chain: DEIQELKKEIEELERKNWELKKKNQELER
# T36: 4H591-bH
# T36 chain: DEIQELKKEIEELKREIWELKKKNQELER
# T37: 4H626-bH
# T37 chain: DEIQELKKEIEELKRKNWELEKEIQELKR
# T38: 4H683-bH
# T38 chain: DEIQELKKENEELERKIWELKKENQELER
# T39: 4H754-bH
# T39 chain: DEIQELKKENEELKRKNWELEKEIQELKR
# T40: 4H780-bH
# T40 chain: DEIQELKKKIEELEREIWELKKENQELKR
# T41: 4H797-bH
# T41 chain: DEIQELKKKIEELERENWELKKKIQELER
# T42: 4H855-bH
# T42 chain: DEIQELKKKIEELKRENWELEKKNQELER
# T43: 4H906-bH
# T43 chain: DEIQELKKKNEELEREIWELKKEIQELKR
# T44: 4H918-bH
# T44 chain: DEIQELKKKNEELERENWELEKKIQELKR
# T45: 4H953-bH
# T45 chain: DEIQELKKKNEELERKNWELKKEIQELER
# T46: 4H953-bN
# T46 chain: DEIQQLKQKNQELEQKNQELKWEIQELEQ
# T47: 4H968-bH
# T47 chain: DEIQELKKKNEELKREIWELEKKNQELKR
# T48: O6-bS
# T48 chain: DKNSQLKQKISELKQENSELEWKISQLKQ
# T49: Core_IIII-es_KEKE
# T49 chain: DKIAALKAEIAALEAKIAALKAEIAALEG
# Experiments:
# Core_IIII-es_KKEK = target: T1, Core_IIII-es_KKEK; assay: two-hybrid library CCmax; settings: mean of both orientations;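 further: natural log of median RNA to DNA barcode read ratio; higher means stronger binding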
# 4H1081-bH = target: T2, 4H1081-bH; assay: two-hybrid library CCNG1; settings: mean of both orientations;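 further: natural log of median RNA to DNA barcode read ratio; higher means stronger binding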
# 4H112-bH = target: T3, 4H112-bH; assay: two-hybrid library CCNG1;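 further: natural log of median RNA to DNA barcode read ratio; higher means stronger binding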
# 4H1158-bH = target: T4, 4H1158-bH; assay: two-hybrid library CCNG1;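 further: natural log of median RNA to DNA barcode read ratio; higher means stronger binding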
# 4H118-bH = target: T5, 4H118-bH; assay: two-hybrid library CCNG1
# 4H1348-bH = target: T6, 4H1348-bH; assay: two-hybrid library CCNG1
# 4H1373-bH = target: T7, 4H1373-bH; assay: two-hybrid library CCNG1
# 4H1544-bH = target: T8, 4H1544-bH; assay: two-hybrid library CCNG1
# 4H170-bH = target: T9, 4H170-bH; assay: two-hybrid library CCNG1
# 4H1710-bH = target: T10, 4H1710-bH; assay: two-hybrid library CCNG1
# 4H1831-bH = target: T11, 4H1831-bH; assay: two-hybrid library CCNG1
# 4H1899-bH = target: T12, 4H1899-bH; assay: two-hybrid library CCNG1
# 4H1985-bH = target: T13, 4H1985-bH; assay: two-hybrid library CCNG1
# 4H2586-bH = target: T14, 4H2586-bH; assay: two-hybrid library CCNG1
# 4H2627-bA = target: T15, 4H2627-bA; assay: two-hybrid library CCNG1
# 4H2627-bH = target: T16, 4H2627-bH; assay: two-hybrid library CCNG1
# 4H2673-bH = target: T17, 4H2673-bH; assay: two-hybrid library CCNG1
# 4H2702-bH = target: T18, 4H2702-bH; assay: two-hybrid library CCNG1
# 4H2717-bA = target: T19, 4H2717-bA; assay: two-hybrid library CCNG1
# 4H3010-bH = target: T20, 4H3010-bH; assay: two-hybrid library CCNG1
# 4H3112-bH = target: T21, 4H3112-bH; assay: two-hybrid library CCNG1
# 4H3162-bH = target: T22, 4H3162-bH; assay: two-hybrid library CCNG1
# 4H3175-bH = target: T23, 4H3175-bH; assay: two-hybrid library CCNG1
# 4H3277-bH = target: T24, 4H3277-bH; assay: two-hybrid library CCNG1
# 4H3298-bH = target: T25, 4H3298-bH; assay: two-hybrid library CCNG1
# 4H3427-bH = target: T26, 4H3427-bH; assay: two-hybrid library CCNG1
# 4H346-bH = target: T27, 4H346-bH; assay: two-hybrid library CCNG1
# 4H3462-bH = target: T28, 4H3462-bH; assay: two-hybrid library CCNG1
# 4H3497-bH = target: T29, 4H3497-bH; assay: two-hybrid library CCNG1
# 4H3613-bH = target: T30, 4H3613-bH; assay: two-hybrid library CCNG1
# 4H3628-bH = target: T31, 4H3628-bH; assay: two-hybrid library CCNG1
# 4H3926-bH = target: T32, 4H3926-bH; assay: two-hybrid library CCNG1; settings: mean of both orientations
# 4H4073-bH = target: T33, 4H4073-bH; assay: two-hybrid library CCNG1
# 4H457-bH = target: T34, 4H457-bH; assay: two-hybrid library CCNG1
# 4H575-bH = target: T35, 4H575-bH; assay: two-hybrid library CCNG1
# 4H591-bH = target: T36, 4H591-bH; assay: two-hybrid library CCNG1
# 4H626-bH = target: T37, 4H626-bH; assay: two-hybrid library CCNG1
# 4H683-bH = target: T38, 4H683-bH; assay: two-hybrid library CCNG1
# 4H754-bH = target: T39, 4H754-bH; assay: two-hybrid library CCNG1
# 4H780-bH = target: T40, 4H780-bH; assay: two-hybrid library CCNG1
# 4H797-bH = target: T41, 4H797-bH; assay: two-hybrid library CCNG1
# 4H855-bH = target: T42, 4H855-bH; assay: two-hybrid library CCNG1
# 4H906-bH = target: T43, 4H906-bH; assay: two-hybrid library CCNG1
# 4H918-bH = target: T44, 4H918-bH; assay: two-hybrid library CCNG1
# 4H953-bH = target: T45, 4H953-bH; assay: two-hybrid library CCNG1
# 4H953-bN = target: T46, 4H953-bN; assay: two-hybrid library CCNG1
# 4H968-bH = target: T47, 4H968-bH; assay: two-hybrid library CCNG1
# O6-bS = target: T48, O6-bS; assay: two-hybrid library CCNG1
# Core_IIII-es_KEKE = target: T49, Core_IIII-es_KEKE; assay: two-hybrid library CCmax; settings: mean of both orientations
binder,measurement,setting,value
DEIAALEAEIAALEAKIAALKAEIAALEG [Core_IIII-es_EEKE],interaction score,Core_IIII-es_KKEK,2.36
DENQELEKEIEELERKNWELKKEIQELER [4H1081-bH],interaction score,4H1081-bH,-1.95
same,interaction score,4H112-bH,-1.77
same,interaction score,4H1158-bH,0.0141
same,interaction score,4H118-bH,-1.07
same,interaction score,4H1348-bH,-1.51
same,interaction score,4H1373-bH,-1.35
same,interaction score,4H1544-bH,-1.4
same,interaction score,4H170-bH,-0.0634
same,interaction score,4H1710-bH,-2.01
same,interaction score,4H1831-bH,-1.05
same,interaction score,4H1899-bH,-0.674
same,interaction score,4H1985-bH,-1.01
same,interaction score,4H2586-bH,-2.05
same,interaction score,4H2627-bA,0.747
same,interaction score,4H2627-bH,0.276
same,interaction score,4H2673-bH,-0.0547
same,interaction score,4H2702-bH,1.09
same,interaction score,4H2717-bA,-0.543
same,interaction score,4H3010-bH,-1.02
same,interaction score,4H3112-bH,-0.896
same,interaction score,4H3162-bH,-0.705
same,interaction score,4H3175-bH,-0.0753
same,interaction score,4H3277-bH,-0.363
same,interaction score,4H3298-bH,-0.0402
same,interaction score,4H3427-bH,-0.522
same,interaction score,4H346-bH,0.118
same,interaction score,4H3462-bH,-0.765
same,interaction score,4H3497-bH,-1.2
same,interaction score,4H3613-bH,-1.47
same,interaction score,4H3628-bH,-1.16
same,interaction score,4H3926-bH,1.74
same,interaction score,4H4073-bH,-1.25
same,interaction score,4H457-bH,-0.677
same,interaction score,4H575-bH,-2.22
same,interaction score,4H591-bH,-0.509
same,interaction score,4H626-bH,-0.576
same,interaction score,4H683-bH,-0.574
same,interaction score,4H754-bH,-0.22
same,interaction score,4H780-bH,-0.372
same,interaction score,4H797-bH,-0.717
same,interaction score,4H855-bH,-0.163
same,interaction score,4H906-bH,-0.686
same,interaction score,4H918-bH,-0.0748
same,interaction score,4H953-bH,-0.931
same,interaction score,4H953-bN,-0.336
same,interaction score,4H968-bH,-0.887
same,interaction score,O6-bS,1.86
DEIAALEAKIAALKAEIAALEAKIAALKG [Core_IIII-es_EKEK],interaction score,Core_IIII-es_KEKE,1.11
